From paper PMC12124957 (Nature chemical biology, 2025) come the findings set out here.

A value given as a limit tells only on which side of the number the result lay.

This data set concerns the molecule itself. Description: light scattering at 340 nm.

B1: ^ΔCFtsH (T. maritima FtsH variant devoid of the N-terminal TM domain (residues 1–146) and of Cys residues) (domain or fragment, UniProt Q9WZ49 147-610, looked up)
chain: ATMYKPSGNKRVTFKDVGGAEEAIEELKEVVEFLKDPSKFNRIGARMPKGILLVGPPGTGKTLLARAVAGEANVPFFHISGSDFVELFVGVGAARVRDLFAQAKAHAPSIVFIDEIDAVGRHRGAGLGGGHDEREQTLNQLLVEMDGFDSKEGIIVMAATNRPDILDPALLRPGRFDKKIVVDPPDMLGRKKILEIHTRNKPLAEDVNLEIIAKRTPGFVGADLENLVNEAALLAAREGRDKITMKDFEEAIDRVIAGPARKSKLISPKEKRIIAYHEAGHAVVSTVVPNGEPVHRISIIPRGYKALGYTLHLPEEDKYLVSRNELLDKLTALLGGRAAEEVVFGDVTSGAANDIERATEIARNMVSQLGMSEELGPLAWGKEEQEVFLGKEITRLRNYSEEVASKIDEEVKKIVTNSYERAKEIIRKYRKQLDNIVEILLEKETIEGDELRRILSEEFEKVVE
With B1, the koff was at least 1.6 s⁻¹.

By koff is commonly meant the rate constant with which the complex falls apart.
